Source: the supplement of paper PMC10724198
± gives the standard deviation of the averaged measurements.

Legend:
Saccharomyces cerevisiae [1] = assay: protein stability index of tFT-peptide fusion (C-terminal peptide) (PSI (0-1 scale)); higher = more stable (slower turnover)
Procedure: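 MPS profiling in S. cerevisiae of the tFT-X12 degron library: putative degron peptides plus stable controls, 12 aa, fused to the C-terminus of a sfGFP-mCherry timer. Cells are FACS-sorted into 8 mCherry/sfGFP bins and deep-sequenced. PSI runs from 0 (unstable) to 1 (stable). Backgrounds are wild type, das1Δ and doa10Δ at 30 °C, and wild type, das1Δ, cdc34-1 and cdc53-1 at 37 °C; 2-3 technical replicates each.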

Saccharomyces cerevisiae [2] = assay: as above; conditions: genetic background: wild type; temperature: 30 C
[3] = genetic background: cdc34-1, temperature: 37 C
[4] = genetic background: cdc53-1, temperature: 37 C
[5] = genetic background: das1 deletion, temperature: 30 C
[6] = genetic background: das1 deletion, temperature: 37 C
[7] = genetic background: doa10 deletion, temperature: 30 C
[8] = genetic background: wild type, temperature: 30 C
[9] = genetic background: wild type, temperature: 37 C
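Note: PSI is a weighted mean of sequencing reads over stability bins, variants kept only with over 10 reads, mCherry proximal and sfGFP distal, peptide attached via GGGS linker.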

| Sequence | protein stability index (Saccharomyces cerevisiae [1]; [3]) | protein stability index (Saccharomyces cerevisiae [1]; [4]) | protein stability index (Saccharomyces cerevisiae [1]; [5]) | protein stability index (Saccharomyces cerevisiae [1]; [6]) | protein stability index (Saccharomyces cerevisiae [1]; [7]) | protein stability index (Saccharomyces cerevisiae [1]; [8]) | protein stability index (Saccharomyces cerevisiae [1]; [9]) | protein stability index (Saccharomyces cerevisiae [2]) |
| --- | --- | --- | --- | --- | --- | --- | --- | --- |
| CCLFFLVVFVGW | 0.167 ± 0.0038 | 0.227 ± 0.027 | 0.191 ± 0.034 | 0.335 ± 0.027 | 0.194 ± 0.029 | 0.183 ± 0.019 | 0.274 ± 0.0075 | 0.255 ± 0.021 |
| GLVAGVYVGSGL | 0.7099 ± 0.0059 | 0.759 ± 0.011 | 0.629 ± 0.036 | 0.741 ± 0.0076 | 0.648 ± 0.031 | 0.616 ± 0.013 | 0.721 ± 0.01 | 0.701 ± 0.02 |
| LFYATRLLFLCI | 0.415 ± 0.034 | 0.432 ± 0.028 | 0.411 ± 0.053 | 0.5185 ± 0.0026 | 0.34042 ± 0.00025 | 0.3 ± 0.023 | 0.4454 ± 0.002 | 0.367 ± 0.0039 |
| VRGSFRRCLSIA | 0.596 ± 0.011 | 0.713 ± 0.021 | 0.623 ± 0.015 | 0.719 ± 0.012 | 0.118 ± 0.027 | 0.142 ± 0.017 | 0.325 ± 0.011 | 0.1981 ± 0.0011 |
| ASTGPLAAIRVY | 0.519 ± 0.0057 | 0.622 ± 0.023 | 0.396 ± 0.028 | 0.5994 ± 0.0011 | 0.377 ± 0.035 | 0.41 ± 0.019 | 0.588 ± 0.017 | 0.495 ± 0.013 |
| LSALMVLSFILV | 0.377 ± 0.016 | 0.4332 ± 0.0036 | 0.379 ± 0.024 | 0.4573 ± 0.00059 | 0.343 ± 0.011 | 0.355 ± 0.028 | 0.428 ± 0.0022 | 0.418 ± 0.033 |
| FSSYLSALLIVV | 0.102 ± 0.047 | 0.1279 ± 0.00017 | 0.176 ± 0.017 | 0.242 ± 0.0039 | 0.155 ± 0.0065 | 0.167 ± 0.029 | 0.214 ± 0.019 | 0.246 ± 0.012 |
| PPVRCVRLPLSS | 0.687 ± 0.035 | 0.744 ± 0.0097 | 0.649 ± 0.029 | 0.717 ± 0.01 | 0.647 ± 0.015 | 0.6376 ± 0.0037 | 0.689 ± 0.0054 | 0.63 ± 0.26 |
| VSWDMLYFWFIQ | 0.664 ± 0.089 | 0.693 ± 0.041 | 0.603 ± 0.059 | 0.764 ± 0.033 | 0.307 ± 0.017 | 0.304 ± 0.028 | 0.554 ± 0.016 | 0.416 ± 0.002 |
| GLCLMICVLCFV | 0.207 ± 0.0085 | 0.315 ± 0.023 | 0.244 ± 0.027 | 0.382 ± 0.0052 | 0.214 ± 0.00016 | 0.23 ± 0.027 | 0.337 ± 0.023 | 0.299 ± 0.0039 |
| CFLPFFIIFIFV | 0.214 ± 0.006 | 0.177 ± 0.019 | 0.209 ± 0.037 | 0.32781 ± 3.9e-05 | 0.271 ± 0.0063 | 0.197 ± 0.031 | 0.301 ± 0.015 | 0.29 ± 0.0067 |
| AFRCVVLCWFLK | 0.31 ± 0.031 | 0.434 ± 0.0094 | 0.292 ± 0.038 | 0.498 ± 0.0098 | 0.268 ± 0.029 | 0.281 ± 0.014 | 0.413 ± 0.011 | 0.415 ± 0.023 |
| SHTRPPVTAPLH | 0.689 ± 0.026 | 0.7142 ± 0.0027 | 0.646 ± 0.0068 | 0.72895 ± 0.00039 | 0.668 ± 0.033 | 0.654 ± 0.014 | 0.695 ± 0.0075 | 0.7165 ± 0.0055 |
| LLSAVAHCYFIA | 0.595 ± 0.034 | 0.713 ± 0.0051 | 0.611 ± 0.01 | 0.738 ± 0.01 | 0.178 ± 0.013 | 0.191 ± 0.021 | 0.29 ± 0.02 | 0.297 ± 0.019 |
| ISFSLALSVSFS | 0.5219 ± 0.0035 | 0.532 ± 0.014 | 0.502 ± 0.015 | 0.478 ± 0.029 | 0.567 ± 0.05 | 0.528 ± 0.011 | 0.469 ± 0.013 | 0.49 ± 0.0052 |
| LWLISTYQLIGI | 0.454 ± 0.021 | 0.583 ± 0.048 | 0.433 ± 0.011 | 0.5727 ± 0.0033 | 0.431 ± 0.022 | 0.451 ± 0.0091 | 0.536 ± 0.034 | 0.521 ± 0.032 |
| RILKEFKRIAVL | 0.501 ± 0.05 | 0.687 ± 0.092 | 0.479 ± 0.024 | 0.7193 ± 0.006 | 0.093 ± 0.0061 | 0.0985 ± 0.016 | 0.139 ± 0.032 | 0.168 ± 0.031 |

| Sequence | protein stability index (Saccharomyces cerevisiae [1]; [3]) | protein stability index (Saccharomyces cerevisiae [1]; [4]) | protein stability index (Saccharomyces cerevisiae [1]; [5]) | protein stability index (Saccharomyces cerevisiae [1]; [6]) | protein stability index (Saccharomyces cerevisiae [1]; [7]) | protein stability index (Saccharomyces cerevisiae [1]; [8]) | protein stability index (Saccharomyces cerevisiae [1]; [9]) | protein stability index (Saccharomyces cerevisiae [2]) |
| --- | --- | --- | --- | --- | --- | --- | --- | --- |
| FIYSVFFYSYWF | 0.36 ± 0.043 | 0.467 ± 0.033 | 0.287 ± 0.015 | 0.467 ± 0.0063 | 0.318 ± 0.025 | 0.272 ± 0.013 | 0.429 ± 0.017 | 0.363 ± 0.016 |
| QFLSLSLPFALF | 0.7057 ± 0.0026 | 0.763 ± 0.014 | 0.64 ± 0.029 | 0.748 ± 0.054 | 0.428 ± 0.041 | 0.45 ± 0.019 | 0.636 ± 0.052 | 0.524 ± 0.036 |
| WRFFLLLFFFGF | 0.493 ± 0.0066 | 0.536 ± 0.024 | 0.44 ± 0.04 | 0.601 ± 0.045 | 0.425 ± 0.0095 | 0.428 ± 0.024 | 0.531 ± 0.012 | 0.465 ± 0.026 |
| NTREGFIILARA | 0.523 ± 0.014 | 0.537 ± 0.018 | 0.369 ± 0.03 | 0.573 ± 0.022 | 0.296 ± 0.0041 | 0.349 ± 0.066 | 0.5303 ± 0.0025 | 0.529 ± 0.065 |
| FVGCFVFYLFLL | 0.422 ± 0.023 | 0.479 ± 0.016 | 0.418 ± 0.031 | 0.5184 ± 0.0036 | 0.394 ± 0.011 | 0.362 ± 0.035 | 0.458 ± 0.027 | 0.417 ± 0.013 |
| WSSAHVAWCYTT | 0.619 ± 0.026 | 0.723 ± 0.021 | 0.5991 ± 0.0031 | 0.7298 ± 0.0027 | 0.1926 ± 0.00045 | 0.217 ± 0.022 | 0.42 ± 0.0059 | 0.304 ± 0.013 |
| VCFLLLLPALLI | 0.466 ± 0.031 | 0.465 ± 0.014 | 0.398 ± 0.026 | 0.516 ± 0.0089 | 0.422 ± 0.0094 | 0.393 ± 0.016 | 0.512 ± 0.027 | 0.432 ± 0.053 |
| WALPRILFLRLT | 0.118 ± 0.074 | 0.157 ± 0.016 | 0.359 ± 0.043 | 0.415 ± 0.0039 | 0.103 ± 0.00013 | 0.0657 ± 0.0088 | 0.0911 ± 0.021 | 0.169 ± 0.028 |
| RVDEVVKKLRTL | 0.62 ± 0.027 | 0.665 ± 0.047 | 0.667 ± 0.012 | 0.707 ± 0.0091 | 0.0971 ± 0.035 | 0.107 ± 0.028 | 0.17 ± 0.025 | 0.195 ± 0.043 |
| SFFLIISFFVRV | 0.2341 ± 0.0015 | 0.394 ± 0.051 | 0.23 ± 0.049 | 0.366 ± 0.031 | 0.239 ± 0.028 | 0.224 ± 0.054 | 0.336 ± 0.013 | 0.338 ± 0.066 |
| KICAVRVIMDWC | 0.459 ± 0.059 | 0.542 ± 0.012 | 0.383 ± 0.044 | 0.566 ± 0.017 | 0.351 ± 0.0053 | 0.379 ± 0.018 | 0.564 ± 0.014 | 0.4769 ± 0.0044 |
| WPRLSHIASFLA | 0.675 ± 0.039 | 0.724 ± 0.038 | 0.682 ± 0.021 | 0.729 ± 0.01 | 0.26889 ± 7.6e-05 | 0.326 ± 0.021 | 0.509 ± 0.0095 | 0.459 ± 0.025 |
| IKKKRNKKKMIM | 0.653 ± 0.093 | 0.727 ± 0.011 | 0.655 ± 0.026 | 0.731 ± 0.026 | 0.316 ± 0.035 | 0.322 ± 0.048 | 0.597 ± 0.013 | 0.505 ± 0.042 |
| FGFLVVLFDCVR | 0.336 ± 0.0095 | 0.437 ± 0.015 | 0.327 ± 0.034 | 0.474 ± 0.017 | 0.2652 ± 0.00067 | 0.291 ± 0.028 | 0.464 ± 0.0057 | 0.436 ± 0.07 |
| LSWWCFLVLLHW | 0.172 ± 0.0081 | 0.14 ± 0.044 | 0.232 ± 0.026 | 0.323 ± 0.021 | 0.262 ± 0.017 | 0.202 ± 0.016 | 0.268 ± 0.012 | 0.302 ± 0.094 |
| VFCPRACWEFVG | 0.567 ± 0.041 | 0.737 ± 0.027 | 0.649 ± 0.021 | 0.7777 ± 0.0067 | 0.12 ± 0.0079 | 0.143 ± 0.0095 | 0.213 ± 0.0029 | 0.222 ± 0.034 |
